In patent US20170198026A1, “Compositions And Methods For Treating Tumors And Immune Based Inflammatory Diseases” (The Schepens Eye Research Institute, Inc., priority 2014, published 2017):
“Also recorded” adds a separate entry of the source.

T1: EMR2 (Homo sapiens, UniProt Q9UHX3)
T1 construct: endogenous in cells; host or cells: human peripheral blood monocytes (from Leukopac PBMC) cultured with TGFb2 and tetanus toxoid, giving tolerogenic APC
T1 sequence (Q9UHX3 24-823): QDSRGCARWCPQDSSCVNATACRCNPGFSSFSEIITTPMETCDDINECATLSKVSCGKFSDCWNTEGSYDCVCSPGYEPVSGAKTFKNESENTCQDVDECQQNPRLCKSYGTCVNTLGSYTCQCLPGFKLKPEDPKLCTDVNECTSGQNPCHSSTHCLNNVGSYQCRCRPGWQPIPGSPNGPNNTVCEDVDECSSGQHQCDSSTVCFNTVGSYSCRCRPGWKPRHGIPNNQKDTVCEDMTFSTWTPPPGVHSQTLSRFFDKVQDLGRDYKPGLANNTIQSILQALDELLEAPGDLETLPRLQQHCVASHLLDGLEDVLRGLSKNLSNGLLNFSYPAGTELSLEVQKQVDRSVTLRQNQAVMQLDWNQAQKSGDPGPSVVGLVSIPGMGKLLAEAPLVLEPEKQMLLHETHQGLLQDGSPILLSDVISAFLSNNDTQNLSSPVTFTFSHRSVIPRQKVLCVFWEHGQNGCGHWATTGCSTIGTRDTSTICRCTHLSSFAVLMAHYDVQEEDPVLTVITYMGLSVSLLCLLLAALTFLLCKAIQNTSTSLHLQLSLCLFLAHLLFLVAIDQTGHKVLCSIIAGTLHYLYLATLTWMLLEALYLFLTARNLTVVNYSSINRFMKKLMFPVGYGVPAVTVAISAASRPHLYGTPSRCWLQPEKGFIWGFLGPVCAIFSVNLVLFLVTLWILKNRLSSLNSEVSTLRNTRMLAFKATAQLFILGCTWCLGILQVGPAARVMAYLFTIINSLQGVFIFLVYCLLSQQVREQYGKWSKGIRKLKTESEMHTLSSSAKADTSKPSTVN

B1: TGFβ2: porcine TGFβ2 (R&D Systems), aqueous humor immunosuppressive factor used to generate tolerogenic APC (protein, UniProt P09858 303-435, looked up)
Transforming growth factor …: ALDAAYCFRNVQDNCCLRPLYIDFKRDLGWKWIHEPKGYNANFCAGACPYLWSSDTQHSRVLSLYNTINPEASASPCCVSQDLEPLTILYYIGKTPKIEQLSNMIVKSCKCSKTKLAAFARLYHSHSNLGSET

Experiments:
EMR2 = biological target: T1, EMR2; experiment: Blocking EMR2 ligand binding with soluble chondroitin sulfate in tolerogenic APC / lymphocyte co-culture; assay type: cell-based
Experimental: Monocytes were cultured as outlined above. Soluble chondroitin sulfate from shark cartilage (Sigma-Aldrich, St. Louis, Mo.) was used to bind to EMR and block signaling at a concentration of 1.5 mg/mL. CD25 and FoxP3 expression as well as intracellular cytokine functionality was tested.
To mediate cell interactions, EMR2 binds to chondroitin sulfate GAGs on the opposing cell. To block EMR2 signaling and the induction of T regulatory cells, we added soluble chondroitin sulfate to the cell culture. Saturating the culture with soluble chondroitin sulfate competitively binds up available EMR2 molecules and subsequently block signaling from the APC to the lymphocytes.
We treated APC with soluble chondroitin sulfate (1.5 mg/mL) in the same conditions listed above. By using a dose curve, we found 1.5 mg/mL was the ideal concentration for saturating EMR2 receptors. Post co-culture with lymphocytes, we repeated surface and intracellular staining of lymphocytes to check for differences in FoxP3+ cells (FIG. 9).

human APCs = experiment: Surface markers on human tolerogenic APC by flow cytometry; assay type: cell-based
Experimental: Isolated cells were plated on sterile petri dishes (BD Falcon, Franklin Lakes, N.J.) in serum-free culture medium, RPMI-1640 supplemented with Glutamax (Invitrogen, Carlsbad, Calif.), 1 mM sodium pyruvate, 0.1 mM non-essential amino acids, 100 U/mL Penicillin/Streptomycin, 10 mM HEPES (Invitrogen, Carlsbad, Calif.), Insulin/Transferrin/Selenium (ITS) (Invitrogen, Carlsbad, Calif.), and 0.1% BSA (Sigma-Aldrich, St. Louis, Mo.). Cells were cultured with or without 1 ng/mL porcine TGFβ2 (R&D Systems, Minneapolis, Minn.) for at least six hours. Cells were then pulsed with or without tetanus toxoid (TT) antigen (List Biological Laboratories, Campbell, Calif.) in serum-free media and incubated overnight in 37° C., 5% CO2.
APC were analyzed by flow cytometry to confirm the expression of myeloid and tolerogenic markers. CD14 (constitutive on monocyte-derived cells), Immunoglobulin-like transcript 3 (ILT3, cell surface immunoglobulin that co-ligates to APC stimulatory receptors to downregulate activation signals (Cella et al., 1997)), Programmed cell death 1 ligand 1 (PD-L1, well-known immunosuppressive ligand), and EMR2 were measured. Monoclonal antibodies to ILT3 and PD-L1 were purchased from eBioscience (San Diego, Calif.) and the monoclonal antibody to EMR2 was purchased from R&D Systems (Minneapolis, Minn.).

[1] = both TGFβ2 (1 ng/mL) and antigen (TT) compared to antigen or TGFβ2 alone

Molecule	CD25+ FoxP3+ cell populations (Treg production) (EMR2; 1.5 mg/mL soluble chondroitin sulfate, APC treated with antigen and TGFβ, CD4+ gated lymphocytes post co-culture)	ideal concentration for saturating EMR2 receptors (EMR2; dose curve, APC culture) [mg/mL]	EMR2 expression on APC (human APCs; TGFβ2 (1 ng/mL) and antigen (TT))	ILT3 expression on APC (human APCs; [1])	PD-L1 expression on APC (human APCs; [1])
chondroitin sulfate [soluble chondroitin sulfate]	no increase; also recorded: successfully blocks Treg production	1.5			
B1			also upregulated	significantly (p≦0.05) upregulated	significantly (p≦0.05) upregulated
